Experiment: soluble fraction after stress (log2 fold change); higher = more stays soluble; pooled small domains, quantitative proteomics
Conditions: stress: pH 4
In short: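 Aggregation propensity is read out as the fold change in how much of each domain remains soluble after acid stress. The custom small-domain libraries were pooled, held at pH 4 and analysed with high-throughput quantitative proteomics. On the log2 scale used, higher values mean more of the domain stayed soluble.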

Sequence	soluble fraction (log2)
HMPTLNIVDGHIAASDGVRILSIHNVTGRRYATSSKLPAGIYIVVLMPAKAETPLTVKVIVEA	-0.17
HMADKGTITNQQEKILKALILFPEGASIEEIQKAADLGIDKRQFQRRLNTLIESGQINRTGKSRGTKYHTI	0.356
HMIIVMSANANAREISEVIARIRAMGYDVHLSHGKERTIIGVIGRGTPIDREQLSLMSGVQQVMPV	-0.109
HMVVVPPPATPKPGDVTGDNKINGYDLSILLSNWKRPGATLAQGDLNKDGVVNGLDLSIMLLNWG	0.0857
HMNEQKVSSLLTPRQLAFIDEYLIDFNGAQAAIRAGYSHKTAGPQAARLLVNVNISRMIAERIEARNK	-1.22
HMPLITDIKIQVKNTEKVSLFVDGKYSFSLTISQLAEHKILKTNQEISAKQVAEFKKLSNLTNLYIRIVG	-0.296
HMSGVIVPDIYNKTLAEAVASLEGEGFSTEKKEGYSDTVPKGNVMSQKPEAGTSAERGSTVTITISQGPQ	-0.0347
HMDAISYTQFMEEAKQGRINKVEVQGRTLMVTPTDGKAYSLTSPGDLWMTTDLMKYGVNVYGAE	-0.527
HMYLYADIYKKLEEKIKNMEVGEKLPSERAMVQEYGVSRNVLREALVLLSERGLIEIRPGKGSYVTNQQ	-0.177
HMTTTPAERQRTILRSLNRVDPVSVDALARLTGVSVVTIRRDLSDLASRDLIRRVHGGALLPTR	0.339
HMATPYISMAGIGKSFGPVHALKSVNLTVYPGEIHALLGENGAGKSTLMKVLSGIHEPTKGTITINNIN	≥ 0.43
HMGKTRSTDRTRRAILDAASDLMGKHGTSVSLARIAEAAGMSKGGLLHHFPSRNDLIRALGED	0.396
HMALKPKITIEELIRILNESKDLSDSETAKILNKDYTTAKYGKEFTSINVQGARYALDIATNTS	-0.323
HMEQAAQPQTGFDPRRLKAGDAVHLLALDQRGVLLEDPKPGAESAPVSVGVAGVRVVVPLREMEALPAG	-0.0942
HMDHKTKLQEVLQKSGDVFIEYRLIKEEGPAHERIFWIEVYVDDQLIGTGQGKSKKLAEQAAAENALAALE	-1.15
HMILNNAKINTELNSLAEFTQRSLDSNTSEIGFYDYKKISYIASFATMKTTNWNVIIRAPINEFMGTVN	0.203
HMVTKQKKLVLTIIERSHGHLSAEEIFFRAREEMPNIALGTVYRNLNSLTEEGIVRRITLPGTSDRFDT	-0.506
HMKGWPDREQAEKIWQQGIDYAIEHHTMSPQIVKEYIFHTQGIARSAALIAARLPDMDTEKAYVLGLLHD	0.0199
HMFTDAEIKQFAAAAVEVTKIQQDSTISAADKQPKMLAVVQSSGLPPEKFNQIGQAAAADPALQQRIQA	0.159
HMQELVPGKVFEGTVTEMKNGQVTLGLSDGKTISARMEQGVSLAKGQPMLFEVKSNTGEQIAIRPVVL	0.105
HMNQIDDADRKRVVDEVAGQFSSMSLTEMRSDREKLLSRIIPQVQTTLNRLGLQTIDVEGIAREVIARVG	-0.288
HMTDDFAGRFNELLIHNQETAVTAATRLEVSPAVITKWRQGKSIPSGEYIKRIVETYHVSADYLLGVIDTP	-0.0517
HMGIAERKEKQKLEIRNAILEASRKLIVEEGFEKVTMRKIADLIEYSPTTVYLYFKDKNEILFHLHQ	-0.798
HMDYKSNLQEMVQTTKKSVTYELVKEEGPAHDRTFTMNVIVDGIVLGTGTAKSKKEAEQEAAHQALEKKA	-0.0453
HMEPEDVIAMERYLASGAIKGIGVTLAGRIIKKFQKETFHIIEEEPERLSEVKGISEKLAREIYQQFTQK	-0.187

Sequence	soluble fraction (log2)
HMLIRKGVVSFFNDAKGYGFIKDLVTQESAFVHVNSLSETIKEHDKVTFEVEMGHKGANAVNVKLVK	-0.72
HMDTPMQEAVLQRLRDKVAQAAAGSKLPTVRQLIADYGVGQHVIQAALEKLRTEGLITSHVGKGTFVG	0.142
HMSNSGFVKNNGKTEFYDASGRQAKSSWINISGKWYYFDLNGTMVTGWQRISNKWYYFLEDGSK	0.342
HMDADTVGQIRVVKQILDDGRLIVVDASGNPVLVRRSSALSLTAISQGDRIIVDPSVRLAIELLPNE	0.148
HMDLRAPKPIKEMGEEYIKLYQYLRKGESENIVMSKMNISLDDYDYMRSEIEDKLSLYNMLDLLRKP	0.0296
HMADFIGMNATVTERIFPQGFGRISFVYEGNSISEPARSEDGKEIPTGTSVVVLEVRDKVYIVQPL	-0.0827
HMNLVELKHAEEFNTLIIQDIGGRMKPAHTLASELVRKVFHNDDFNGIDPRKVFLSIIENSKVWFNVPFI	-0.361
HMGQVGIPFSDFLAEVENGQVREVVIKGNDISGTFNDNRGFSTYAPNDPNLVEKLTKRGVVINAQPTE	0.123
HMALDSQEVGYNIEARGARPVVAQLGKAGQFSAVENSIRLGDDNWIALAPKLAGGGNAGFTAGIKSALS	-0.293
HMQDSSGENNPQSKLTQQQVDLLMKDLKETNVEFDKLAEKYNVSIKTIRNVNTGIAWRKNDITYPIREP	-0.255
HMSSTAIQAMIRRLIDGEDPRKPLSDARLAETLKASGVPVARRTVAKYRESMSIPSSQDRLRI	0.0607
HMYNNDEIEKIQTMYNAIYQLNDIEKALIMLFLEDKSYKEIAEIMGISEGNARIKMMRTKDKLKNLISKN	-0.608
HMSAPQKWDGSLQDFIRFKQEAKTLMDNIPNKRLALNAILETISDGKMRKRLAKYDGPESALKSLELEFGN	0.0286
HMSSVEEILQTLGGRIRTQRLAQGISQQVLADRAGLSLGAVRQLEGSGQSGLDTLVRVLFVLGIVDEL	-1.57
HMVFKSAQEGLDFYSKQLNDVDATLGRIRRGEESGNGLYGSNRVKNLEEQRKKLDSFVTAYRNAVNAT	0.177
HMVKGIVPNLIGKTQDEAKQMAEEYGFSIGTVSEKASDKPKGTVIEQSPKAGAKASGVTSINIVVSDGS	-0.247
HMVSKQVTVNGIQYYQYTVQKSEGFYAISTKFGVTQDDIILANPSTKEGLRVGQEILIPIKT	-0.0976
HMVLALRGIVQGGAEPLVILSDGRTSQSLAVGERFLAYEVVEIGRTGVRLRGPEGEIWLAMASF	-1.37
HMDEALLRATLLDVLVKHHPKIGDKLDVVFALAKAWVSSGSDDDFEVLEKYMERLKPDEALMLASGFSNML	-0.819
HMASATGVVTAASLNVRSGAGTNYSVVNTLAKGTKVTVLNTADGWYEIEATVNNEKITGYVSATYIAMD	-0.0486
HMVSVEINTVERDETFRKMFTSGWKPENRIQALAVEQAKKNGLGRMSEVAGLASFRGIWKQATEQVALEA	-0.0443
HMPEQLLNTRIPLEFAGRRFDASLAELFPDYSRSRLAAWIKDGAARLDGETVAPRHTVRGGEQVEILVRM	-0.13
HMDPTVSGQTGSVVREIRPGVPGEVELSVPLYGIRRWQAMADGILAEGTRVTVIQAEGVRLSVRPV	-0.251
HMAPRSSAVYFYLSQVALKKNQPRKAEAMARRGLTVSQDANRRRALWQLILRSGQAQNNTRVIREAQQAL	-0.0754
HMPQLVGDVDGDGRVSVTDGEWIRASYGALPWYAGWRAAADLDGSRKIDVVDLELLRTKMGN	-0.772

Sequence	soluble fraction (log2)
HMSKSVEQRRQQIVAWVKEHGQSQVEDLAVRFATSEVTIRKDLAALSQQGLLIRQFGGAVPVPA	0.119
HMADLNFHQQIRSLPPEQQEILLLRFGQELTLRQIAQVTGVPLRTVQSRLRAALKKLKSQLEKEE	-0.0215
HMNTTTTKVVSVSSLNMRSGPSTSYNIIEVLTKDTQVEVISVEDGWAKIKYNSKTGYVSNQYLSDKK	-0.0101
HMTETEIVIGGKYRHYKGGEYELVSIVKHSETLEELVIYKSLSTGEMWARPKSLFVGLVDGQPRYTL	-1.39
HMKGISRVTMELIIDALKKETEPRTVQWIAEKTGLATQTTYRYLQYMVSEQTVEALNVYGKVVSLKAK	0.153
HMALIGSNLRHLRNERKLSQQELADLIRVGRTTIANIEANLANPGHKTLLEIVKVFDITIDELLHTDLTK	-0.684
HMEIIFVEHKVRPGESVWLIARKYKVKKNHILAVNNLSEKSIIRPKQILKIPTSGYDQYKKSVE	-0.495
HMKTERTVRVQDQHLHYTLEEKPIKNVNLRIRPDGSVYVSAPFGTSRTLIDDFVASKSKQILAIQQAQSAM	0.22
HMQPSQTLSATVEFPDRLDRFLALAFPEVSRARFQRLIAEGHVSVEGVPATEIRHKLKAGQRVEAVIPPA	0.197
HMLDTELEANLRSQRDQKLVEELDPIVTNPLRWAELTSDKQTEWTQYRTDLLNVPQQSGFPTNVTWPEKP	-0.401
HMKQPNSYGSVHKLPGKRRKPWRVRKTSGWLLDEQSGTVKQQYITIGYYATKQEALIALADYNENP	-0.434
HMSFMPDPSIHDAITYTVRSGDYLGKISTTFGVKVSDLQKWNSIKSNIIYPGQKLTVWVSSNKRESLQ	0.194
HMQEESISWKEFLELDIIGDKKKRLKVYDLFHLGYGNAKTLFKRLNMVGISREMIEKELENEGY	-0.0561
HMEGYLYLSESQNELILKNLKTPLKYNLYNASGKLIKKGNIKNTLDISELPKGVYIFTSSDNSFSKKFLKT	0.276
HMAQTEIIRVTKDIKKGDAITADKFEKVKVGAYNLPGNVVKNADELKGKFAAADLVRGDYILTSKLTDNP	0.0605
HMGAFAIHTASELSAGMRIRHERFGPGVITGIDTANPASGARIQVDFDNGTSKTLLLSYAKFQI	0.22
HMKAGEDAVQKAVLEAVAESAAAVADYKAGSERALNFIVGKVMKKTRGKASAAEVHRLVREEVDR	0.079
HMKNYYRILGLNIDAEYEEIKAAYRILAQRHHPDKGGAAAEFRLIQEAYDILSNPLTKRNYDADLLATLN	-1.08
HMLDVFSAEQVADVLSVSKRNLETWANNGKLIPDFIHGEVALYSKKQLEQFEQFQRFFNSSWDAERLIQP	-1.24
HMDNLKELDEILETYGKKKGYLITILQKAQDAYGYISIDIMNRISEFTGIKVAKIYGVATFYAQFRL	-0.651
HMKGSIMIETILKELKKNNKGFNFLLEKFDISEDELMKIINDLIHDKKVFLNSNNKYEIVSD	-0.958
HMGIERTNADTSFSVNVYGKELIITSNKPLVVNIYAIDGTLVRTEQVTIGVNTVSGLPSGIYVVGQQKVVI	-0.752
HMEDNYYENKINYLFGYLDEADKEISVNSILDFHLAHRTNPEFVFEPKKNTNPLIWKYLSNSNLLY	0.0187
HMIMTEKEKKLLNRYIMHDTIHKLYHEQNKSMRWIADNLGINFRTVQKYLDMDSGEFQKYSESISNR	-0.141
HMTARPTLEKLKYMIHEAGITENSLKVIVATKGHYGLDADISTYSDDFITRWIIPNWTKIVQTISNNK	0.0354
